Patent US20200392227A1 (LYVGEN BIOPHARMA, published 2020)
Substitutions are numbered along the chain they refer to. Where two headings read alike, the source gives them in different places.

T1: human FcRIIA protein (MednaBio, E1033) (human, UniProt P12318 34-218, limits assumed)
T1 construct: Bought; also called FcγRIIA
T1 sequence (looked up): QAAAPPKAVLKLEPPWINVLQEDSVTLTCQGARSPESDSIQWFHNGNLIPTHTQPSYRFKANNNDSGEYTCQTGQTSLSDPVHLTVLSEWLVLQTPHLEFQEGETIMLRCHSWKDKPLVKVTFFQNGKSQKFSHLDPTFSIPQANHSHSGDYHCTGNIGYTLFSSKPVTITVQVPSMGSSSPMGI

T2: human FcRIIB/C protein (MednaBio, E1034) (human, UniProt P31994 43-217, limits assumed)
T2 construct: Bought as FcRIIB/C; also called FcγRIIB; CD32B
T2 sequence (looked up): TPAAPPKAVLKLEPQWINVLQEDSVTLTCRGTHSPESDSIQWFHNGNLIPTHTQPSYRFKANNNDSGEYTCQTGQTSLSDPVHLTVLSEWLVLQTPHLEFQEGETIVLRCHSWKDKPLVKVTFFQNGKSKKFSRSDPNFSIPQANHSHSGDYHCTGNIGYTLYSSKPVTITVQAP

T3: human FcγRIIC expressed on CHO cells (human, UniProt P31995 43-323)
T3 construct: whole, on cells
T3 sequence (looked up): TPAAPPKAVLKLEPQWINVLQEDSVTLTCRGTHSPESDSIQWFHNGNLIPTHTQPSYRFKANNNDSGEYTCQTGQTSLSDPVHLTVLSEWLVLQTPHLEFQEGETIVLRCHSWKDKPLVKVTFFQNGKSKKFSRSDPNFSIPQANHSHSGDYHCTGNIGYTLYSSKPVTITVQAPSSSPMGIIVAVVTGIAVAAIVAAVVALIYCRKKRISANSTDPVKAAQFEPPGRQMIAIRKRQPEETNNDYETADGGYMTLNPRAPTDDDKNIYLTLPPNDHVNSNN

B1: anti-CD137 IgG2 with Fc variant G2m7 (antibody)
heavy: EVQLVQSGAEVKKPGESLRISCKGSGYSFSTYWISWVRQMPGKGLEWMGKIYPGDSYTNYSPSFQGQVTISADKSISTAYLQWSSLKASDTAMYYCARGYGIFDYWGQGTLVTVSSASTKGPSVFPLAPCSRSTSESTAALGCLVKDYFPEPVTVSWNSGALTSGVHTFPAVLQSSGLYSLSSVVTVPSSNFGTQTYTCNVDHKPSNTKVDKTVERKCCVECPPCPAPPVAGPSVFLFPPKPKDTLMISRTPEVTCVVVDVEHEDPEVQFNWYVDGVEVHNAKTKPREEQFNSTFRVVSVLTVVHQDWLNGKEYKCKVSNKGLPAPIEKTISKTKGQPREPQVYTLPPSREEMTKNQVSLTCLVKGFYPSDIAVEWESNGQPENNYKTTPPMLDSDGSFFLYSKLTVDKSRWQQGNVFSCSVMHEALHNHYTQKSLSLSPGK
light: SYELTQPPSVSVSPGQTASITCSGDNIGDQYAHWYQQKPGQSPVLVIYQDKNRPSGIPERFSGSNSGNTATLTISGTQAMDEADYYCATYTGFGSLAVFGGGTKLTVLGQPKAAPSVTLFPPSSEELQANKATLVCLISDFYPGAVTVAWKADSSPVKAGVETTTPSKQSNNKYAASSYLSLTPEQWKSHRSYSCQVTHEGSTVEKTVAPTECS
notes: copies: 2 + 2
B2: anti-CD137 IgG2 with Fc variant G2m8 (antibody)
heavy: B1 heavy with E262S, L323F
light: B1 light
notes: copies: 2 + 2
B3: anti-CD137 IgG2 with Fc variant G2m9 (antibody)
heavy: B1 heavy with L323F
light: B1 light
notes: copies: 2 + 2
B4: anti-CD137 IgG4 with Fc variant G4m1 (antibody)
heavy: EVQLVQSGAEVKKPGESLRISCKGSGYSFSTYWISWVRQMPGKGLEWMGKIYPGDSYTNYSPSFQGQVTISADKSISTAYLQWSSLKASDTAMYYCARGYGIFDYWGQGTLVTVSSASTKGPSVFPLAPCSRSTSESTAALGCLVKDYFPEPVTVSWNSGALTSGVHTFPAVLQSSGLYSLSSVVTVPSSSLGTKTYTCNVDHKPSNTKVDKRVESKYGPPCPPCPAPEFLSVFLFPPKPKDTLMISRTPEVTCVVVDVSQEDPEVQFNWYVDGVEVHNAKTKPREEQFNSTYRVVSVLTVLHQDWLNGKEYKCKVSNKGLPSSIEKTISKAKGQPREPQVYTLPPSQEEMTKNQVSLTCLVKGFYPSDIAVEWESNGQPENNYKTTPPVLDSDGSFFLYSRLTVDKSRWQEGNVFSCSVMHEALHNHYTQKSLSLSLGK
light: B1 light
notes: copies: 2 + 2
B5: anti-CD137 IgG4 with Fc variant G4m10 (antibody)
heavy: B4 heavy with F230V, L231S, L321F
light: B1 light
notes: copies: 2 + 2

How the values were obtained:
[1] = target: T4, human FcRIIIB protein (MednaBio, E1037) (human, UniProt O75015 17-200); experiment: BLI
T4 construct: Bought; also called FcγRIIIB; FcgRIIIB
T4 sequence (O75015 17-200 limits assumed): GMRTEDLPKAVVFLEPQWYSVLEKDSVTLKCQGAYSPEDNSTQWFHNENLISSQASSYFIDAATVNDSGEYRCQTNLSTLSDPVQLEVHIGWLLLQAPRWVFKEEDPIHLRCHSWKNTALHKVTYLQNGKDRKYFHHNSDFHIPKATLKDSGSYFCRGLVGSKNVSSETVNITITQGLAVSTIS
Method in brief: (§1)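 Binding was measured by biolayer interferometry on an Octet Red96 System. Commercial human Fc receptor proteins were loaded at 20 μg/mL onto anti-penta-HIS biosensors, which were then dipped into an 8-point 1:3 dilution series of test IgG starting at 300 nM in PBS with 0.1% BSA and 0.02% Tween-20, at pH 7.2 for Fcγ receptors and pH 6 for FcRn. Kd, kon and koff were obtained by global fitting, with data fitted to a 1:1 binding model.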

[2] = target: T1, human FcRIIA protein (MednaBio, E1033); experiment: BLI
Method in brief: as §1

[3] = target: T5, human FcRIIIA-V158 protein (MednaBio, E1035) (human, UniProt P08637 17-208); experiment: BLI
T5 construct: Bought; also called FcγRIIIA(V); FcgRIIIA(V)
T5 sequence (P08637 17-208 F176V): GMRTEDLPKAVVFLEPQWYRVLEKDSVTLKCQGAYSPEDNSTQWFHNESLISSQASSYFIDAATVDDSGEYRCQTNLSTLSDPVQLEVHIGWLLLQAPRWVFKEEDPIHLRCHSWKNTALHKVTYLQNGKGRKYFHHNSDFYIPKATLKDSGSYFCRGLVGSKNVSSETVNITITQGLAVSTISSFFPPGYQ
Method in brief: as §1

[4] = target: T2, human FcRIIB/C protein (MednaBio, E1034); experiment: BLI
Method in brief: as §1

[5] = target: T6, human FcRI protein (MednaBio, E1031) (human, UniProt P12314 16-288, limits assumed); experiment: BLI
T6 construct: Bought; loaded on anti-penta-HIS biosensors; also called FcγRI
T6 sequence (P12314 16-288 limits assumed): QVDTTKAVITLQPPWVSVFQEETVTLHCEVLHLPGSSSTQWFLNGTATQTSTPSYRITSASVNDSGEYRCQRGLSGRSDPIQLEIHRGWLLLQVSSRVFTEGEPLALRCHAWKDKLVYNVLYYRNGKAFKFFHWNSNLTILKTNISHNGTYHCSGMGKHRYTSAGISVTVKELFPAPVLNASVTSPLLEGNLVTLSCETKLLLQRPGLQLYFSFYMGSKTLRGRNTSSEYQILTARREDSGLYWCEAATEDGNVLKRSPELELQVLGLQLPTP
Method in brief: as §1

[6] = target: T7, human FcRn protein (MednaBio, E1032) (human, UniProt P55899 24-297; P61769 21-119); experiment: BLI
T7 construct: Bought; assays at pH 6
T7 sequence (P55899 24-297 limits assumed, form in doubt, chain 1 of 2): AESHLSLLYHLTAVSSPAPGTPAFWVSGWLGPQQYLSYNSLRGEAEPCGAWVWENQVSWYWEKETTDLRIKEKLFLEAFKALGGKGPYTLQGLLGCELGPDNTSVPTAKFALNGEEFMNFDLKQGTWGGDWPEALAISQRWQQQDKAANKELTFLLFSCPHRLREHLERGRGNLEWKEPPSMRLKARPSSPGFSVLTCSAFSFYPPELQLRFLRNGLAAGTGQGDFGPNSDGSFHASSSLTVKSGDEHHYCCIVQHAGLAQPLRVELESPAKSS
T7 sequence (P61769 21-119 limits assumed, form in doubt, chain 2 of 2): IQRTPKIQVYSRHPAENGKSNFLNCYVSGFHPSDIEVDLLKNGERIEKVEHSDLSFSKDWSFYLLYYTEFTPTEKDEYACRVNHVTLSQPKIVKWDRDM
Method in brief: as §1

[7] = target: T8, human FcRIIIA-F158 protein (MednaBio, E1036) (human, UniProt P08637 17-208); experiment: BLI
T8 construct: Bought; also called FcγRIIIA(F)
T8 sequence (P08637 17-208 limits assumed): as the sequence (P08637 17-208 F176V) above, with V160F counted along it
Method in brief: as §1

[8] = target: T3, human FcγRIIC expressed on CHO cells; experiment: FACS, CHO cells expressing FcγRIIC
[9] = target: T9, human FcγRI expressed on CHO cells (human, UniProt P12314 16-374); experiment: FACS, CHO cells expressing FcγRI
T9 construct: whole, on cells
T9 sequence (P12314 16-374): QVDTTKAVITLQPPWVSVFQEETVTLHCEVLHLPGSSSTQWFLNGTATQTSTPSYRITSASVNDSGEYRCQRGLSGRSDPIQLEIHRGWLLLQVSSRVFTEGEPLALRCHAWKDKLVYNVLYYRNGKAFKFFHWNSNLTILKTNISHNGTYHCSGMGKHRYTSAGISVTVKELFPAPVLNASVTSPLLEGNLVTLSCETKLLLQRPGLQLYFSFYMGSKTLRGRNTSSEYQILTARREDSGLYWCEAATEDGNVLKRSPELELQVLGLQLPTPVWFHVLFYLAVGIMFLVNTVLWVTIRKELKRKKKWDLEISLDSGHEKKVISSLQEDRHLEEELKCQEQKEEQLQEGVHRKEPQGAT
Procedure: For FACS analysis of the IgG mutants' binding to different FcγRs, FcγR overexpressing CHO cells were harvested using trypsin-EDTA and were suspended in cold staining buffer (3% BSA in PBS). Test IgG mutants, which were diluted in staining buffer, were added into the cells. The mixture was incubated 4° C. for 2 hours, and then washed twice with cold staining buffer and re-suspended in PE-labeled anti-human IgG followed by incubation at 4° C. for 2 hours. The mixture was washed twice with staining buffer and re-suspended in 2% PFA in PBS for FACS.

[10] = target: T4, human FcRIIIB protein (MednaBio, E1037); experiment: BLI; remark: listed apart in the source
Procedure: (§2) These IgG mutants were tested for binding to a panel of human Fc receptors (FcRs), including FcRn, using the Octet Red96 System (ForteBio, Model #Red96). Human FcR proteins were purchased commercially (FcRn, MednaBio, E1032; FcRI, MednaBio, E1031; FcRIIA, MednaBio, E1033; FcRIIB/C, MednaBio, E1034; FcRIIIA-F158, MednaBio, E1036; FcRIIIA-V158, MednaBio, E1035; FcRIIIB, MednaBio, E1037). All Fey receptor assays were performed at pH 7.2; all FcRn assays were performed at pH 6. The Fey receptors were loaded onto anti-penta-HIS1K (ForteBio, Cat #18-5122) biosensors at a concentration of 20 μg/mL. The loaded biosensors was then be dipped into an 8-point 1:3 dilution series of the test IgG molecules (including controls and the mutants described herein) in PBS with 0.1% BSA, 0.02% Tween-20 (pH 7.2) at a starting concentration of 300 nM. Kinetic analysis was performed using a 1:1 binding model and global fitting.

[11] = target: T1, human FcRIIA protein (MednaBio, E1033); experiment: BLI; remark: listed apart in the source
Procedure: as §2

[12] = target: T5, human FcRIIIA-V158 protein (MednaBio, …); experiment: BLI; remark: listed apart in the source
Procedure: as §2

[13] = target: T2, human FcRIIB/C protein (MednaBio, E1034); experiment: BLI; remark: listed apart in the source
Procedure: as §2

[14] = target: T6, human FcRI protein (MednaBio, E1031); experiment: BLI; remark: listed apart in the source
Procedure: as §2

[15] = target: T7, human FcRn protein (MednaBio, E1032); experiment: BLI; remark: listed apart in the source
Procedure: as §2

[16] = target: T8, human FcRIIIA-F158 protein (MednaBio, …); experiment: BLI; remark: listed apart in the source
Procedure: as §2

Binder | binding result [1] | Kd [2] | koff [2] | kon [2] | binding result [3] | Kd [4] | koff [4] | kon [4] | binding result [5] | Kd [6] | koff [6] | kon [6] | binding result [7] | binding result [8] | binding result [9] | binding result [10] | Kd [11] | koff [11] | kon [11] | binding result [12] | also measured
B1 | no binding (tested: 300 nM) | 120 nM | 0.028 s⁻¹ | 230000 M⁻¹ s⁻¹ | no binding (tested: 300 nM) | 170 nM | 0.052 s⁻¹ | 310000 M⁻¹ s⁻¹ | no binding (tested: 300 nM) | 5.7 nM | 0.0052 s⁻¹ | 910000 M⁻¹ s⁻¹ | no binding (tested: 300 nM) | binds | no binding (tested: 10 ug/ml) |  |  |  |  |  | 
B2 | no binding (tested: 300 nM) | 93 nM | 0.092 s⁻¹ | 990000 M⁻¹ s⁻¹ | no binding (tested: 300 nM) | 500 nM | 0.26 s⁻¹ | 510000 M⁻¹ s⁻¹ | no binding (tested: 300 nM) | 6.3 nM | 0.0053 s⁻¹ | 850000 M⁻¹ s⁻¹ | no binding (tested: 300 nM) |  | no binding (tested: 10 ug/ml) |  |  |  |  |  | 
B3 | no binding (tested: 300 nM) | 280 nM | 0.03 s⁻¹ | 110000 M⁻¹ s⁻¹ | no binding (tested: 300 nM) | 52 nM | 0.005 s⁻¹ | 97000 M⁻¹ s⁻¹ | no binding (tested: 300 nM) | 22 nM | 0.0058 s⁻¹ | 270000 M⁻¹ s⁻¹ | no binding (tested: 300 nM) | binds |  |  |  |  |  |  | 
B4 |  |  |  |  |  |  |  |  |  |  |  |  |  |  |  | no binding (tested: 300 nM) | 450 nM | 0.11 s⁻¹ | 240000 M⁻¹ s⁻¹ | no binding (tested: 300 nM) | Kd [13]: 250 nM; koff [13]: 0.11 s⁻¹; kon [13]: 420000 M⁻¹ s⁻¹; Kd [14]: 130 nM; koff [14]: 0.097 s⁻¹; kon [14]: 740000 M⁻¹ s⁻¹; Kd [15]: 19 nM; koff [15]: 0.013 s⁻¹; kon [15]: 690000 M⁻¹ s⁻¹; binding result [16]: no binding (tested: 300 nM)
B5 |  |  |  |  |  |  |  |  |  |  |  |  |  | no binding (tested: 10 ug/ml) |  | no binding (tested: 300 nM) | 83 nM | 0.037 s⁻¹ | 450000 M⁻¹ s⁻¹ | no binding (tested: 300 nM) | binding result [13]: no binding (tested: 300 nM); binding result [14]: no binding (tested: 300 nM); Kd [15]: 11 nM; koff [15]: 0.0055 s⁻¹; kon [15]: 510000 M⁻¹ s⁻¹; binding result [16]: no binding (tested: 300 nM)
